Experimental data from patent US20120276092A1.

Molecular target: polyhistidine-tagged human FcRn (human) (UniProt P55899)
Assay: AlphaScreen competition, pH 6.0, against biotinylated human IgG1 mAb CNTO 6234 on polyHis human FcRn

fold change of KD against CNTO 530: 2 fold
Substance: CNTO 5303 (CNTO 530 T359N/N361T) (from UniProt P01861 116-325) (Fc fusion)
